Assay results taken from PMC12516561 (2025).

B1: iRhom2 wild type (HA-tagged) [human] / beta-COP, endogenous [human (endogenous in HEK293T)] (parent)
chain 1: MASADKNGGSVSSVSSSRLQSRKPPNLSITIPPPEKETQAPGEQDSMLPEGFQNRRLKKSQPRTWAAHTTACPPSFLPKRKNPAYLKSVSLQEPRSRWQESSEKRPGFRRQASLSQSIRKGAAQWFGVSGDWEGQRQQWQRRSLHHCSMRYGRLKASCQRDLELPSQEAPSFQGTESPKPCKMPKIVDPLARGRAFRHPEEMDRPHAPHPPLTPGVLSLTSFTSVRSGYSHLPRRKRMSVAHMSLQAAAALLKGRSVLDATGQRCRVVKRSFAFPSFLEEDVVDGADTFDSSFFSKEEMSSMPDDVFESPPLSASYFRGIPHSASPVSPDGVQIPLKEYGRAPVPGPRRGKRIASKVKHFAFDRKKRHYGLGVVGNWLNRSYRRSISSTVQRQLESFDSHRPYFTYWLTFVHVIITLLVICTYGIAPVGFAQHVTTQLVLRNKGVYESVKYIQQENFWVGPSSIDLIHLGAKFSPCIRKDGQIEQLVLRERDLERDSGCCVQNDHSGCIQTQRKDCSETLATFVKWQDDTGPPMDKSDLGQKRTSGAVCHQDPRTCEEPASSGAHIWPDDITKWPICTEQARSNHTGFLHMDCEIKGRPCCIGTKGSCEITTREYCEFMHGYFHEEATLCSQVHCLDKVCGLLPFLNPEVPDQFYRLWLSLFLHAGVVHCLVSVVFQMTILRDLEKLAGWHRIAIIFILSGITGNLASAIFLPYRAEVGPAGSQFGLLACLFVELFQSWPLLERPWKAFLNLSAIVLFLFICGLLPWIDNIAHIFGFLSGLLLAFAFLPYITFGTSDKYRKRALILVSLLAFAGLFAALVLWLYIYPINWPWIEHLTCFPFTSRFCEKYELDQVLH
chain 2: MTAAENVCYTLINVPMDSEPPSEISLKNDLEKGDVKSKTEALKKVIIMILNGEKLPGLLMTIIRFVLPLQDHTIKKLLLVFWEIVPKTTPDGRLLHEMILVCDAYRKDLQHPNEFIRGSTLRFLCKLKEAELLEPLMPAIRACLEHRHSYVRRNAVLAIYTIYRNFEHLIPDAPELIHDFLVNEKDASCKRNAFMMLIHADQDRALDYLSTCIDQVQTFGDILQLVIVELIYKVCHANPSERARFIRCIYNLLQSSSPAVKYEAAGTLVTLSSAPTAIKAAAQCYIDLIIKESDNNVKLIVLDRLIELKEHPAHERVLQDLVMDILRVLSTPDLEVRKKTLQLALDLVSSRNVEELVIVLKKEVIKTNNVSEHEDTDKYRQLLVRTLHSCSVRFPDMAANVIPVLMEFLSDNNEAAAADVLEFVREAIQRFDNLRMLIVEKMLEVFHAIKSVKIYRGALWILGEYCSTKEDIQSVMTEIRRSLGEIPIVESEIKKEAGELKPEEEITVGPVQKLVTEMGTYATQSALSSSRPTKKEEDRPPLRGFLLDGDFFVAASLATTLTKIALRYVALVQEKKKQNSFVAEAMLLMATILHLGKSSLPKKPITDDDVDRISLCLKVLSECSPLMNDIFNKECRQSLSHMLSAKLEEEKLSQKKESEKRNVTVQPDDPISFMQLTAKNEMNCKEDQFQLSLLAAMGNTQRKEAADPLASKLNKVTQLTGFSDPVYAEAYVHVNQYDIVLDVLVVNQTSDTLQNCTLELATLGDLKLVEKPSPLTLAPHDFANIKANVKVASTENGIIFGNIVYDVSGAASDRNCVVLSDIHIDIMDYIQPATCTDAEFRQMWAEFEWENKVTVNTNMVDLNDYLQHILKSTNMKCLTPEKALSGYCGFMAANLYARSIFGEDALANVSIEKPIHQGPDAAVTGHIRIRAKSQGMALSLGDKINLSQKKTSI
B2: iRhom2 wild type (HA-tagged) [human] / 14-3-3 epsilon, endogenous [human (endogenous in HEK293T)] (parent)
chain 1: B1 chain 1
chain 2: MDDREDLVYQAKLAEQAERYDEMVESMKKVAGMDVELTVEERNLLSVAYKNVIGARRASWRIISSIEQKEENKGGEDKLKMIREYRQMVETELKLICCDILDVLDKHLIPAANTGESKVFYYKMKGDYHRYLAEFATGNDRKEAAENSLVAYKAASDIAMTELPPTHPIRLGLALNFSVFYYEILNSPDRACRLAKAAFDDAIAELDTLSEESYKDSTLIMQLLRDNLTLWTSDMQGDGEEQNKEALQDVEDENQ

Variants of: B1
Assay: co-immunoprecipitation (HA-IP) with western blot quantification
Details: iRhom1/2 DKO HEK293T cells, three independent experiments, read off a plot

Row | Variant | ratio to parent
1 | chain 1 P233A R234A R235A K236A R237A M238A | 1.15
2 | chain 1 P233A R234A R235A K236A R237A M238A S239A | 1.05
3 | chain 1 S239A | 0.98

Variants of: B2
Assay: as above
Details: with 14-3-3 epsilon, iRhom1/2 DKO HEK293T cells, three independent experiments, read off a plot

Row | Variant | ratio to parent
4 | chain 1 P233A R234A R235A K236A R237A M238A | 1.3
5 | chain 1 P233A R234A R235A K236A R237A M238A S239A | 2.1
6 | chain 1 S239A | 0.92
